Patent publication US7205273B2, “Fusogenic liposomes” (The University of British Columbia, priority 1996, dated 2007)

Experiments:
[1] = 31P-NMR phase behaviour of equimolar DOPE:cholesterol mixtures with bilayer stabilizing component; format: physicochemical; conditions: DOPE:cholesterol:BSC 1:1:0.25, 0 to 60° C.
Description: Lipid components were mixed in 1–2 ml of benzene:methanol (95:5, v/v) and then lyophilized for a minimum of 5 hours at a pressure of <60 millitorr using a Virtis lyophilizer equipped with a liquid N2 trap. Multilamellar vesicles (MLVs) were prepared by hydrating the dry lipid mixtures in 150 mM NaCl, buffered with 10 mM Hepes-NaOH, pH 7.4 (Hepes-buffered saline, HBS). Mixtures were vortexed to assist hydration. To produce large unilamellar vesicles (LUVs), MLVs were first frozen in liquid nitrogen and then thawed at 30° C. five times. LUVs were produced by extrusion of the frozen and thawed MLVs ten times through 2 stacked polycarbonate filters of 100 nm pore size at 30° C. and pressures of 200–500 psi (Hope, et al., Biochim. Biophys. Acta, 812:55–65 (1985)).
^31P-NMR spectra were obtained using a temperature controlled Bruker MSL200 spectrometer operating at 81 MHz. Free induction decays were accumulated for 2000 transients using a 4 μs, 90° pulse, 1 sec. interpulse delay, 20 KHz sweep width and Waltz decoupling. A 50 Hz line broadening was applied to the data prior to Fourier transformation. Samples were allowed to equilibrate at the indicated temperature for 30 minutes prior to data accumulation. Lipid concentrations of 30–70 mM were used.

[2] = Lipid mixing (FRET) assay, NaCl-induced fusion of DOPE:DODAC liposomes; conditions: DOPE:DODAC:PEG-lipid 83:15:2, 300 mM NaCl, POPC sink, 37° C.
Description: FIG. 16 illustrates the inhibition of fusion of DOPE:DODAC liposomes by PEG-PE. Liposomes were prepared from either DOPE:DODAC (85:15) or DOPE:DODAC:DMPE-PEG2000 (83:15:2). Fusion was assayed as described under FIG. 1 using 300 mM NaCl.
FIG. 17 illustrates the recovery fusogenic activity after PEG removal. Liposomes were prepared from either DOPE:DODAC:ceramide(C8:0)-PEG2000, 83:15:2 or […], 38:45:15:2. Fusion was assayed as described under FIG. 2 except that at the indicated times a 30 fold excess (over donors) of liposomes composed of POPC or POPC:cholesterol (55:45) was added.
FIG. 18 illustrates the effect of the lipid anchor on the rate of PEG-lipid removal. […] At zero time a 13-fold excess (over labelled vesicles) of POPC liposomes was added and the fluorescence intensity was measured at the indicated times. At the end of the assay Triton X-100 (0.5% final) was added to eliminate energy transfer and the % fusion was calculated from the change in efficiency of energy transfer. Maximum fusion was calculated from a standard curve of energy transfer efficiency against the molar fraction of Rh-PE in the membrane assuming complete mixing of labelled and unlabelled liposomes.
Lipid mixing was measured by a modification of the fluorescence resonance energy transfer (FRET) assay of Struck, et al. (Biochemistry, 20:4093–4099 (1981)). […]

1-O-methyl-(poly(ethoxy)-O-succinyl-O-(egg)ceramide [egg ceramide-PEG2000]
phase preference by 31P-NMR [1]: exclusively bilayer up to 60 °C
time for 50% maximal fusion [2]: over 20 hr
